The values that follow come from patent US20060073572A1, “Cytokine structurally related to IL-17” (The Johns Hopkins University, priority 2001, published 2006).

Entries after “also recorded” stand apart in the source; their conditions may differ.

One experiment concerns IL-6. Briefly: IL-6 expression in PBECs (ELISA, RT-PCR). To be noted: ML-1 10 and 100 ng/ml, 24 and 48 hours, ELISA. The experiment is classed as cell-based, human. As for the experimental part:
FIG. 5. Analysis of IL-6 (FIG. 5A) and IL-8 (FIG. 5B) expression in primary bronchial epithelial cells (PBECs) and human umbilical vein endothelial cells (HUVECs) stimulated by ML-1. The IL-6 and IL-8 protein release in the supernatant was determined by ELISA as described in Example 8. The results were expressed as mean+SD (n=6). *p<0.05 was considered significant vs control.
FIG. 7A-7D. Effect of PD98059 on IL-6 (FIG. 7A) and IL-8 (FIG. 7B) protein production in PBECs and HUVECs. The cells were preincubated with varying concentrations of PD98059, SB202190, or DMSO vehicle control for 1 hour, followed by stimulation with ML-1 (100 ng/ml) for 24 hours. The results are expressed as the mean+SD (n=6). *P<0.05 when compared to cultures without the addition of PD98059. FIGS. 7C and 7D. Semi-quantitative analysis of gene expression for IL-6 (FIG. 7C) and IL-8 (FIG. 7D) by RT-PCR. The cells were preincubated as described above and treated with ML-1 for 4 hours. RT-PCR was performed as described in Example 8. The results shown are representative of three separate experiments.
Primary bronchial epithelial cells (PBECs) were purchased from Clonetics (San Diego, Calif.) and cultured in bronchial epithelial basal medium (Clonetics) containing 0.5 ng/ml human recombinant epidermal growth factor (EGF), 52 mg/ml bovine pituitary extract, 0.1 mg/ml retinoic acid, 0.5 mg/ml hydrocortisone, 5 mg/ml insulin, 10 mg/ml transferrin, 0.5 mg/ml epinephrine, 6.5 ng/ml triiodothyronine, […] gentamicin, and 50 pg/ml amphotericin-B (Clonetics). […]
The amplification reaction was performed for 23 cycles with denaturation at 94° C. for 45 seconds, annealing at 56° C. for 45 seconds, and extension at 72° C. for 45 seconds. PCR products were detected by ethidium bromide staining and normalized by the intensity of an amplified housekeeping gene, G3PDH (see above). […] IL-6 and IL-8 protein levels in the collected supernatants were determined with a commercially available ELISA kit (Biosource, Camarillo, Calif.) according to the manufacturer's instructions.
(In general: An ELISA detects its analyte on a solid surface through an enzyme-linked reagent.)

The next experiment concerns IL-8. Briefly: IL-8 expression in NHBE cells (RT-PCR and ELISA). Format: cell-based, human. To be noted: 100 ng/ml. An excerpt:
FIGS. 3A-3C. FIG. 3A, Expression of ML-1 protein in COS-7 cells. COS-7 cells were transfected with a gene construct containing full-length ML-1 sequence and a tag sequence encoding poly (His) peptide. ML-1-His fusion proteins were purified from supernatants of the transfected cells using a His affinity column, run on an 8-16% SDS-polyacrylamide gel under reducing conditions, and analyzed by Western Blot using anti-His monoclonal antibody. Lane 1 represents a mock-transfected sample. Lane 2 represents an ML-1-transfected sample. The location of a 19.5 kd marker is indicated. FIG. 3B, Effect of ML-1 on IL-8 gene expression. Human primary bronchial epithelial cells (NHBE cells) were treated with different stimuli. The cells were harvested 4 hours after stimulation, and total RNA was extracted and subjected to RT-PCR using IL-8 and G3PDH primers. Lane 1, medium only; lane 2, cells treated with rIL-17 (100 ng/ml); lane 3, cells treated with purified His-tagged protein (Positope, 100 ng/ml); lane 4, cells treated with ML-1 (100 ng/ml). FIG. 3C, Effect of ML-1 on IL-8 protein production. NHBE cells were treated with the same stimuli used in FIG. 3B, and the supernatants were harvested 48 hours after stimulation.
Primary human bronchial epithelial (NHBE) cells were purchased from Clonetics (San Diego, Calif.) and cultured according to the manufacturer's instructions. The cells were treated with IL-17 (100 ng/ml), ML-1 (100 ng/ml), or a control His-tagged protein (Positope, 100 ng/ml; Invitrogen, Carlsbad, Calif.). The affinity-purified control His protein was dissolved in the same buffer as ML-1. Total RNA was extracted using Rneasy (Qiagen, Chatsworth, Calif.) from 1×10^6 cells 4 hours after stimulation or exchange of media. The protocol for cDNA synthesis was that described above. For PCR, the sequences of PCR primers were based on the human IL-8 cDNA sequence. The sequences of PCR primers for IL-8 were: forward, 5′-TCTGCAGCTCTGTGTGAAG-3′ (SEQ ID NO:14) and reverse, 5′-TAATTTCTGTGTTGGCGCA-3′ (SEQ ID NO:15). The amplification reaction was performed for 23 cycles with denaturation at 94° C. for 45 seconds, annealing at 56° C. for 45 seconds, and extension at 72° C. for 45 seconds PCR products were detected by ethidium bromide staining. The expected size for IL-8 was 154 basepairs. IL-8 protein levels in the collected supernatants were determined with a commercially available ELISA kit (Biosource, Camarillo, Calif.) according to the manufacturer's instructions.

B1: ML-1: new member of the IL-17 cytokine family, SEQ ID NO:2; His-tagged recombinant protein expressed in COS-7 cells and affinity purified (protein, listed as Homo sapiens)
chain: MKLDIGIINENQRVSMSRNIESRSTSPWNYTVTWDPNRYPSEVVQAQCRNLGCINAQGKEDISMNSVPIQQETLVVRRKHQGCSVSFQLEKVLVTVGCTCVTPVIHHVQ
modifications: His tag
In the case of B1, in the experiment on IL-6, the IL-6 production result is recorded as “time-dependent increase; also recorded: significantly induced”. Further, in the experiment on IL-8 (ELISA of supernatants, 48 hours), the IL-8 protein expression result is “enhanced”. Besides, the IL-8 transcript expression result in the experiment with IL-8 (RT-PCR) was “enhanced”.
